Values quoted from earlier work in publication PMC7226498.

Biological target: p53 OD (Homo sapiens) (UniProt P04637)

Chain of p53 OD (P04637 325-356): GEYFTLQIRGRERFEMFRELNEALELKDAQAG

For p53 OD (from UniProt P04637), the Kd is listed as 1 nM.
